Test results from patent US20220089723A1 (UNIVERSITY HEALTH NETWORK, published 2022).

Target: T1, Human LILRB3 (human, UniProt O75022 24-631)
T1 construct: whole, on cells; Endogenous receptor on primary human PBMCs and whole blood cells, not a recombinant construct; also called CD85A; ILT5
Experiment: flow cytometry; human PBMCs and fresh whole blood stained with 3A3 and gated on cell subsets
Procedure: LILRB3 surface expression was measured on various hematopoietic subsets in the form of two-dimensional flow cytometry (FCM) representations called quantile contour plots (probability plots). Peripheral blood mononuclear cells (PBMCs) from a healthy human donor were stained with the LILRB3 3A3 antibody as well as antibodies specific for the indicated cell subset. FIG. 1A plots depict LILRB3 expression by gated CD3+CD4+T cells, CD3+CD8+ T cells or CD11b+ monocytes. In FIG. 1B, fresh whole blood from a healthy human donor was stained as in FIG. 1A. Plots depict LILRB3 expression by gated CD3+CD4+ T cells, CD3+CD8+ T cells, CD11b+ monocytes or CD11b+ granulocytes. Percentages of gated cells and of LILRB3+ cells within the gated population are depicted inside the plots (first and second numbers, respectively). […] Specificity of the LILRB3 staining was determined by staining all of the above cell subsets with an IgG1 isotype control antibody. Data are representative of several independent experiments utilizing different human blood samples.

T1 sequence (O75022 24-631): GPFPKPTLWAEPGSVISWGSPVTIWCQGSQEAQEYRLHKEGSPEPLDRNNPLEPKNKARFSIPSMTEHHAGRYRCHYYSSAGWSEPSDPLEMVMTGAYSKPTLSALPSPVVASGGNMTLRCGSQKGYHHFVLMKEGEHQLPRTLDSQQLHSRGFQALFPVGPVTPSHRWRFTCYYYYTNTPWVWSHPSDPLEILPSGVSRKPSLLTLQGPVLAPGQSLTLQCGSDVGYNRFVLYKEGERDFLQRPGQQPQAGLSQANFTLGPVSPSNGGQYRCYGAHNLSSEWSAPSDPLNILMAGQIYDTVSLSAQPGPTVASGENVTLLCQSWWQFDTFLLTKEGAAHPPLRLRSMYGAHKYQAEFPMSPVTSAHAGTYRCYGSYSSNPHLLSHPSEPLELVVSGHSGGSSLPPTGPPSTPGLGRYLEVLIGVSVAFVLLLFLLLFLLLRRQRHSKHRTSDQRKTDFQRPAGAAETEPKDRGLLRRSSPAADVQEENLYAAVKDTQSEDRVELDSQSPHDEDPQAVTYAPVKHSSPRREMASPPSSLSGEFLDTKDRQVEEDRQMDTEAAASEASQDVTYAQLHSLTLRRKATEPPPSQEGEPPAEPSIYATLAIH

B1: LILRB3 3A3 antibody (antibody, V domains shown)
VH: QVQLQQSRTELMKPGASVKLSCKATGYTFTGYWIEWVKQRPGHGLEWIGEILPGSTNINYNERFKGKATITADTSSNTAYMQLSSLTTEDSAIYYCARWASVVVGDYWGQGATLTVSS
VL: QIVLTQSPAIMSASLGERVTMTCTASSSVSSSYLHWYQQKPGSSPKLWIYSTSNLASGVPARFSGSGSGTSYSLTISSMEAEDAATYYCHQYHRSPPTFGGGTKLEIKR
notes: the entries also seem to hold an N-terminal leader and part of the constant region
- binding result: binds
